Results from patent US5656591A, “Antimicrobial agents and method for treating products therewith” (Morinaga Milk Industry Co., Ltd., priority 1992, dated 1997).

How the values were obtained:
[1] = system: microorganisms belonging to the genera of Staphylococcus and Enterococcus; details: Journal of Dairy Science, Vol. 67, page 606, 1984; cited from earlier work
[2] = system: Staphylococcus aureus (JCM-2151); experiment: Viability assay (survival rate) in cow's milk medium; assay type: cell-based
Description: The colonies grown on the culture medium were scraped by a platinum loop and cultivated in 1% peptone (by Difco Company) culture medium for several hours at 37° C., and the resultant microbial culture at logarithmic phase was used as the preculture in a serial concentration of 3×10^8 /ml.
A quantity of the resultant solutions of the samples were selectively mixed with a quantity of the basal medium, thereby test media for the respective tests were prepared in the combinations and eventual concentrations as specified in the respective tests.
Utilizing the samples (5), (7), (8), (9), (10), (14), (15), (17), (18) and (19), test media were prepared in the same manner as in the preparation of the test media containing sample (3) and the like, except that the aqueous solution (in the cases of samples (5) and (7), aqueous suspensions) were not dealt with sterilization filters.
To 2 ml aliquots of test media prepared in (3-1) (supra), […] aliquots of the preculture of Staphylococcus aureus prepared in (1) (2. Method, supra) were added, then incubated at 37° C. for 1 hour, 200 μl aliquots of the resultant cultures were taken out and diluted with 1% peptone solution in a series of 10^n respectively, 110 μl aliquots of the resultant dilution series were spread onto plates of standard agar culture medium, and after incubation at 37° C. for 24 hours the number of colonies grown on the plates were counted (Test. Colony Count).
Control coloney counts 1 were determined in the same manner as in the determination of the test coloney counts, except that […] aliquots of the preculture of Staphylococcus aureus prepared in (1) (2. Method, supra) were added to 2 ml aliquots of the respective control media 1 prepared in (3-2) (supra). Furthermore, control coloney counts 2 were determined in the same manner as in the determination of the test coloney counts, except that […] aliquots of the preculture of Staphylococcus aureus prepared in (1) (supra) were added to 2 ml aliquots of the respective control media 1 prepared in (3-2) (supra).
Survival rate 1=(Test Colony Count/Control Colony Count 1)×100
Survival rate 2=(Control Colony Count 2/Control Colony Count 1)×100
(Note: In the tables shown hereinafter, vulues of survival rate 2 are indicated in the row where the concentration of antimicrobial peptide or lactoferrin hydrolysate is 0.)

B1: lactoferrin: Bovine lactoferrin on the market (by Sigma Company) (protein)
chain: APRKNVRWCTISQPEWFKCRRWQWRMKKLGAPSITCVRRAFALECIRAIAEKKADAVTLDGGMVFEAGRDPYKLRPVAAEIYGTKESPQTHYYAVAVVKKGSNFQLDQLQGRKSCHTGLGRSAGWIIPMGILRPYLSWTESLEPLQGAVAKFFSASCVPCIDRQAYPNLCQLCKGEGENQCACSSREPYFGYSGAFKCLQDGAGDVAFVKETTVFENLPEKADRDQYELLCLNNSRAPVDAFKECHLAQVPSHAVVARSVDGKEDLIWKLLSKAQEKFGKNKSRSFQLFGSPPGQRDLLFKDSALGFLRIPSKVDSALYLGSRYLTTLKNLRETAEEVKARYTRVVWCAVGPEEQKKCQQWSQQSGQNVTCATASTTDDCIVLVLKGEADALNLDGGYIYTAGKCGLVPVLAENRKSSKHSSLDCVLRPTEGYLAVAVVKKANEGLTWNSLKDKKSCHTAVDRTAGWNIPMGLIVNQTGSCAFDEFFSQSCAPGADPKSRLCALCAGDDQGLDKCVPNSKEKYYGYTGAFRCLAEDVGDVAFVKNDTVWENTNGESTADWAKNLNREDFRLLCLDGTRKPVTEAQSCHLAVAPNHAVVSRSDRAAHVKQVLLHQQALFGKNGKNCPDKFCLFKSETKNLLFNDNTECLAKLGGRPTYEEYLGTEYVTAIANLKKCSTSPLLEACAFLTR
- concentration in which lactoferrin exhibits antimicrobial activity [1]: 0.5 to 80 mg/mL
- survival rate ([2]; Test 1: peptide 0, lactoferrin 0.1 mg/ml): 150
- survival rate ([2]; Test 1: peptide 0, lactoferrin 1 mg/ml): 150
- survival rate ([2]; Test 1: peptide 0, lactoferrin 10 mg/ml): 104
- survival rate ([2]; Test 20: peptide 0, 1-monolauroyl-rac-glycerol 0, bovine lactoferrin 1 mg/ml): 105%
- antimicrobial activity of the compound added without antimicrobial peptide or lactoferrin hydrolysate (in words) ([2]; compound alone): no antimicrobial activity was observed
- effect of the coexisting compound on the antimicrobial activity of the antimicrobial peptide (in words) ([2]; with antimicrobial peptide Seq. ID No. 26): augments the antimicrobial activity of the peptide
- effect of the coexisting compound on the antimicrobial activity of the antimicrobial peptide (in words) ([2]; with antimicrobial peptide Seq. ID No. 27): further augments the antimicrobial activity of the antimicrobial peptides
